Changes are numbered by the printed parent chain. Numbers in names are those of the source. One block for each binder: values may come before it.
Experiments:
Details in all cases: remark: other sources report otherwise
[1] = target: T1, CHIP (carboxyl terminus of heat shock 70-interacting protein), wild type, His-tagged recombinant (human), Q9UNE7; assay: SEC-MALS
T1 chain: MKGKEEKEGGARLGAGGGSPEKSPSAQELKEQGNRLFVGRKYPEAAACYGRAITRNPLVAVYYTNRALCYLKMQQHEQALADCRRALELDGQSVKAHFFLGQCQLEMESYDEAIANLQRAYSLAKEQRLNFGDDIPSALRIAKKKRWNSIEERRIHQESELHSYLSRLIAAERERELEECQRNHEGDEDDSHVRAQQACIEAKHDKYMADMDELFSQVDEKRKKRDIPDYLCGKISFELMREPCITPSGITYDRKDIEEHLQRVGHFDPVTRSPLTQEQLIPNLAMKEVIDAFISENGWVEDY

[2] = target: T2, myc-CHIP-K30A (pcDNA3-mycCHIP-K30A) (human), Q9UNE7; assay: native gel or EMSA
T2 chain: T1 chain with K30A

[3] = target: T3, myc-CHIP wild type (pcDNA3-mycCHIP) (human), Q9UNE7; assay: native gel or EMSA
T3 chain: T1 chain

[4] = target: T4, CHIP-K30A, His-tagged recombinant (human), Q9UNE7; assay: SEC-MALS
T4 chain: T1 chain with K30A

B2: myc-CHIP-K30A (pcDNA3-mycCHIP-K30A), Q9UNE7 1-303 (natural protein)
chain: T1 chain with K30A
- stoichiometry N [2]: 2

B3: myc-CHIP wild type (pcDNA3-mycCHIP), Q9UNE7 1-303 (natural protein)
chain: T1 chain
- stoichiometry N [3]: 2

The remaining lines, values ahead:

- stoichiometry N [1]: 2
B1: CHIP (carboxyl terminus of heat shock 70-interacting protein), wild type, His-tagged recombinant, Q9UNE7 1-303 (natural protein)
chain: T1 chain

- stoichiometry N [4]: 2
B4: CHIP-K30A, His-tagged recombinant, Q9UNE7 1-303 (natural protein)
chain: T1 chain with K30A

— article doi:10.1101/283192
